Measured values as given in patent US20090298778A1.
Each block holds one binder with its values, some of them ahead of it. Non-standard residues stand in square brackets, D forms with d. No end group written: not given here. Cit = NC(=O)NCCC[C@H](N)C(=O)O

Experiments:
[1] = target: mixture of ACPA-positive IgGs (IgG fraction of an equal-parts mixture of 38 sera from patients suffering from RA having a high serum ACPA titer); test: competition ELISA: soluble competitor preincubated 2 h with IgG ACPA+ (16 µg/ml), binding to coated citrullinated fibrinogen
[2] = target: mixture of ACPA-positive IgGs (IgG fraction of an equal-parts mixture of 38 sera from patients suffering from RA having a high serum ACPA titer); test: cell-based or functional assay

percentage inhibition (plateau value) [1]: 70%
B1: mixture of α36-50cit38, 42 and β60-74cit60, 72, 74 peptides (peptide)
peptide 1: GP[Cit]VVE[Cit]HQSACKDS
peptide 2: [Cit]PAPPPISGGGY[Cit]A[Cit]-NH2
modifications: also: mixture of two free peptides, not a complex

amount of TNF-α secreted by macrophages; peptide at 0.8 mg/ml as competitor of IC formation on coated citrullinated fibrinogen [2]: 40 pg/mL
amount of TNF-α secreted by macrophages; peptide at 4 mg/ml as competitor of IC formation on coated citrullinated fibrinogen [2]: < 20 pg/mL
percentage inhibition (plateau value) [1]: 60%
B2: β60-74cit60, 72, 74 peptide (peptide)
peptide: [Cit]PAPPPISGGGY[Cit]A[Cit]-NH2
modifications: N-terminus assumed
SMILES: CC[C@H](C)[C@H](NC(=O)[C@@H]1CCCN1C(=O)[C@@H]1CCCN1C(=O)[C@@H]1CCCN1C(=O)[C@H](C)NC(=O)[C@@H]1CCCN1C(=O)[C@@H](N)CCCNC(N)=O)C(=O)N[C@@H](CO)C(=O)NCC(=O)NCC(=O)NCC(=O)N[C@@H](Cc1ccc(O)cc1)C(=O)N[C@@H](CCCNC(N)=O)C(=O)N[C@@H](C)C(=O)N[C@@H](CCCNC(N)=O)C(N)=O

percentage inhibition (plateau value) [1]: 15%
Binder: GP[Cit]VVE[Cit]HQSACKDS [α36-50cit38, 42 peptide]
